In patent US20220195058A1 (Regeneron, published 2022):
Like-named read-outs stand apart in the source and are kept apart here.

T1: human NPR1 (hNPR1) with a C-term myc and FLAG tag, stably expressed on HEK293 cells (human, UniProt P16066 33-1061)
T1 sequence: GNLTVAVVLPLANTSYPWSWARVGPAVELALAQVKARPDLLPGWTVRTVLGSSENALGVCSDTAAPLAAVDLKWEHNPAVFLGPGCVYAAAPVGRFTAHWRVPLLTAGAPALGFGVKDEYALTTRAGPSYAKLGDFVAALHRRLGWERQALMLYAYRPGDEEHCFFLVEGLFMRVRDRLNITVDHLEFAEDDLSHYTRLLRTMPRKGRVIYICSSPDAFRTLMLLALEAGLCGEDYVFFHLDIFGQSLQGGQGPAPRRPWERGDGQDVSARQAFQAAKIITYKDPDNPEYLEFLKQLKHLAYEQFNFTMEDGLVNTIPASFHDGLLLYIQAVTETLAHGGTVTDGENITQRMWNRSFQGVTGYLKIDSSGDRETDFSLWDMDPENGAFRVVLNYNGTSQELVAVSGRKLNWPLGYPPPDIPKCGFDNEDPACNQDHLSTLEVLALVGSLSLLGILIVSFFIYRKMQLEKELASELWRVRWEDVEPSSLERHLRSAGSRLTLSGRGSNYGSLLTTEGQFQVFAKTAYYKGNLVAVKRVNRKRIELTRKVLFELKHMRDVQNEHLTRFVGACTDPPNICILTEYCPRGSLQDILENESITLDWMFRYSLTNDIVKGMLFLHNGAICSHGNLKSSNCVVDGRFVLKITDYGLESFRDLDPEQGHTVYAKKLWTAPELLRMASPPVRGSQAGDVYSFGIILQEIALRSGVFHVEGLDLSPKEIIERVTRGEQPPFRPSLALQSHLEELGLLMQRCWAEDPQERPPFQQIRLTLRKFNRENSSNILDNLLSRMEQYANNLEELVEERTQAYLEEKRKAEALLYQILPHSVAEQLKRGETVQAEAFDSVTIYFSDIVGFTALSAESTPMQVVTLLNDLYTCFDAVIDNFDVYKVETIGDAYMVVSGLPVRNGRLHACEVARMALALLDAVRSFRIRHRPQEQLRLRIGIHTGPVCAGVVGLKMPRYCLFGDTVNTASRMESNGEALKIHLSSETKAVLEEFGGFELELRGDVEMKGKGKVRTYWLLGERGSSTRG

B1: R5381 (antibody, V domains shown)
VH: QVQLVQSGAEVKKPGASVTVSCKASGYTFTDYYMHWVRQAPGQGLEWMGWIKPNSGGTNSAQRFQGRITMTWDTSISTAYMELSRLRSDDTAVYYCSRGGPVMNYYYYYGMDVWGQGTTVTVSS
VL: NIQMTQSPSSLSASVGDRVTITCRASQSIDSYLNWYQQKPGKAPKLLIYVASSLQSGVPSRFSGSGSGKDFTLTISSLQPEDFATYYCQQSYSIPTFGQGTRLEIKR
B2: REGN6581 (antibody, human IgG4 S228P, kappa, V domains shown)
VH: QVQLQESGPGLVKPSETLSLTCTVSGASISTYYWSWIRQPPGKGLEWIGYIYYSGTTNYNPSLKSRVTISVDTSKNQFSLKLSSVTAADTAVYYCARDRGGYDGEWGQGTLVTVSS
VL: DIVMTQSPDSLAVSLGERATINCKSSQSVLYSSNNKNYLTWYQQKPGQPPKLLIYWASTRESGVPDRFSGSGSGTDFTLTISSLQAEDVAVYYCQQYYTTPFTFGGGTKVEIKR
notes: Bivalent human IgG4; also called bivalent anti-R5381 mAb; anti-idiotype antibody
B3: REGN6580 (antibody, human IgG4 S228P, kappa, V domains shown)
VH: QVQLVESGGGVVQPGRSLRLSCAASGFTFSSYGMHWVRQAPGKGLEWVALIWFDGGYKYYADSVKGRFTISRDNSKNTLYLQMNSLRADDTAVYYCARGSAAAGHVPFDYWGQGILVTVSS
VL: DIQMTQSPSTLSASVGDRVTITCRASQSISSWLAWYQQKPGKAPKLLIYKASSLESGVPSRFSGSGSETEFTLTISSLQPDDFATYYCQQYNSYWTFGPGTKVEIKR
notes: as for B2
B4: REGN9035 (antibody, human IgG4 S228P, kappa)
heavy: QVQLVESGGGVVQPGRSLRLSCAASGFTFSSYGMHWVRQAPGKGLEWVALIWFDGGYKYYADSVKGRFTISRDNSKNTLYLQMNSLRADDTAVYYCARGSAAAGHVPFDYWGQGILVTVSSASTKGPSVFPLAPCSRSTSESTAALGCLVKDYFPEPVTVSWNSGALTSGVHTFPAVLQSSGLYSLSSVVTVPSSSLGTKTYTCNVDHKPSNTKVDKRVESKYGPPCPPCPAPEFLGGPSVFLFPPKPKDTLMISRTPEVTCVVVDVSQEDPEVQFNWYVDGVEVHNAKTKPREEQFNSTYRVVSVLTVLHQDWLNGKEYKCKVSNKGLPSSIEKTISKAKGQPREPQVYTLPPSQEEMTKNQVSLTCLVKGFYPSDIAVEWESNGQPENNYKTTPPVLDSDGSFFLYSRLTVDKSRWQEGNVFSCSVMHEALHNRFTQKSLSLSPGK
chain: not shown
light: not shown
notes: Monovalent (one-armed) human IgG4: one full heavy chain, one light chain and one truncated heavy chain (Fc); also called one-armed anti-R5381 antibody; monovalent anti-R5381 mAb
B5: REGN9037 (antibody, human IgG4 S228P, kappa)
heavy: QVQLQESGPGLVKPSETLSLTCTVSGASISTYYWSWIRQPPGKGLEWIGYIYYSGTTNYNPSLKSRVTISVDTSKNQFSLKLSSVTAADTAVYYCARDRGGYDGEWGQGTLVTVSSASTKGPSVFPLAPCSRSTSESTAALGCLVKDYFPEPVTVSWNSGALTSGVHTFPAVLQSSGLYSLSSVVTVPSSSLGTKTYTCNVDHKPSNTKVDKRVESKYGPPCPPCPAPEFLGGPSVFLFPPKPKDTLMISRTPEVTCVVVDVSQEDPEVQFNWYVDGVEVHNAKTKPREEQFNSTYRVVSVLTVLHQDWLNGKEYKCKVSNKGLPSSIEKTISKAKGQPREPQVYTLPPSQEEMTKNQVSLTCLVKGFYPSDIAVEWESNGQPENNYKTTPPVLDSDGSFFLYSRLTVDKSRWQEGNVFSCSVMHEALHNRFTQKSLSLSPGK
chain: not shown
light: not shown
notes: as for B4

How the values were obtained:
[1] = molecular target: T1, human NPR1 (hNPR1) with a C-term myc …; assay: cell-based or functional assay
H2aM22033N [2] = molecular target: T2, H2aM22033N; assay: SPR Biacore T200, H2aM22033N captured via anti-mouse Fc, analyte injected, 37 C, pH 7.4
T2 construct: also called parental hybridoma of R5381
Protocol: (§1) All binding studies were performed in 10 mM HEPES, 150 mM NaCl, 3 mM EDTA, and 0.05% v/v Surfactant Tween-20, pH 7.4 (HBS-ET) running buffer at 25° C. and 37° C. The Biacore CM5 sensor chip surface was first derivatized by amine coupling with anti-mouse Fc specific antibody (GE Healthcare, # BR100838) to capture H2aM22033N. […] The dissociation of different mAbs bound to H2aM22033N was monitored for 10 minutes in HBS-ET running buffer. At the end of each cycle, the H2aM22033N capture surface was regenerated using a 60 sec injection of 10 mM Glycine-HCl, pH 1.5. The association rate (kₐ) and dissociation rate (kd) were determined by fitting the real-time binding sensorgrams to a 1:1 binding model with mass transport limitation using Scrubber 2.0c curve-fitting software. Binding dissociation equilibrium constant (KD) and dissociative half-life (t½) were calculated from the kinetic rates as:

R5381 [3] = molecular target: B1; assay: cell-based or functional assay
REGN1945 [4] = assay: cell-based or functional assay
H2aM22033N [5] = molecular target: T2, H2aM22033N; assay: SPR Biacore T200, H2aM22033N captured via anti-mouse Fc, analyte injected, 25 C, pH 7.4
Protocol: as §1

R5381 [6] = molecular target: B1; assay: cell-based or functional assay; remark: listed apart in the source
R5381 [7] = molecular target: B1; assay: blocking ELISA: antibody pre-bound to 95 pM Biotin-R5381, binding to coated hNPR1.ecto.mmh read
Protocol: After 1 hour, incubation at RT, the pre-bind reaction mix was transferred to microtiter plates coated with hNPR1.ecto.mmh. The microtiter plates were incubated at RT for 1 hour and then washed with plate washing solution. […] The plates were incubated with detection protein for 1 hour at RT and then washed with plate washing solution. The assay plates were developed with TMB colorimetric substrates according to the manufacturer's recommended procedure.
The absorbance at 450 nm for each well was recorded and plotted as the function of the concentration of antibody. Data was analyzed in GraphPad Prism software using a four-parameter logistic equation over an 11-point dose response curve and IC₅₀ values were calculated.

R5381 [8] = molecular target: B1; assay: cell-based or functional assay; remark: listed apart in the source
REGN1945 [9] = assay: cell-based or functional assay; remark: listed apart in the source
H2aM22033N [10] = molecular target: T2, H2aM22033N; assay: SPR Biacore 4000, H2aM22033N captured via anti-mouse Fc, 37 C, association pH 7.4, dissociation pH 6.5
Protocol: (§2) All binding studies were performed at 37° C. using four running buffers, (i) PBS, 0.05% v/v Surfactant Tween-20, pH 7.4 (PBS-T-pH 7.4), (ii) PBS, 0.05% v/v Surfactant Tween-20, pH 6.5 (PBS-T-pH 6.5), (iii) PBS, 0.05% v/v Surfactant Tween-20, pH 6.0 (PBS-T-pH 6.0), and (iv) PBS, 0.05% v/v Surfactant Tween-20, pH 5.0 (PBS-T-pH 5.0).
(§3) The dissociation rate constants (kd) in four pH running buffers were determined by fitting the real-time binding sensorgrams to a 1:1 binding model using Scrubber 2.0c curve-fitting software. The dissociative half-life (t½) was calculated from the kd values as:

H2aM22033N [11] = molecular target: T2, H2aM22033N; assay: SPR Biacore 4000, H2aM22033N captured via anti-mouse Fc, 37 C, association pH 7.4, dissociation pH 5.0
Protocol: as §2, §3

H2aM22033N [12] = molecular target: T2, H2aM22033N; assay: SPR Biacore 4000, H2aM22033N captured via anti-mouse Fc, 37 C, association pH 7.4, dissociation pH 6.0
Protocol: as §2, §3

H2aM22033N [13] = molecular target: T2, H2aM22033N; assay: SPR Biacore 4000, H2aM22033N captured via anti-mouse Fc, 37 C, association pH 7.4, dissociation pH 7.4
Protocol: as §2, §3

| 100 nM Ag Bound (RU) (H2aM22033N [2]) | Kd (H2aM22033N [2]) [nM] | koff (H2aM22033N [2]) [s⁻¹] | kon (H2aM22033N [2]) [M⁻¹ s⁻¹] | t1/2 (H2aM22033N [2]) [min] | C1q-CIC assay Final Value; 100 nM antibody + 100 nM antigen; Result Neg (R5381 [3]) [ug Eq/mL] | C1q-CIC assay Final Value; 1 uM antibody + 100 nM antigen; Result Neg (R5381 [3]) [ug Eq/mL] | 100 nM Ag Bound (RU) (H2aM22033N [5]) | Kd (H2aM22033N [5]) [nM] | koff (H2aM22033N [5]) [s⁻¹] | kon (H2aM22033N [5]) [M⁻¹ s⁻¹] | t1/2 (H2aM22033N [5]) [min] | IC50 of inhibition of 70 nM R5381-induced cGMP, 40 pM ANP (R5381 [6]) [M] | IC50 of inhibition of 70 nM R5381-induced cGMP, 80 pM BNP (R5381 [6]) [M] | IC50 of inhibition of 70 nM R5381-induced cGMP, no ligand (R5381 [6]) [nM] | Max Inh. (%) of 70 nM R5381-induced cGMP, 40 pM ANP (R5381 [6]) [%] | Max Inh. (%) of 70 nM R5381-induced cGMP, 80 pM BNP (R5381 [6]) [%] | Max Inh. (%) of 70 nM R5381-induced cGMP, no ligand (R5381 [6]) [%] | % Blocking with 333.33 nM antibody (R5381 [7]) [%] | IC50 (R5381 [7]) [nM] | Binder | further results |
| --- | --- | --- | --- | --- | --- | --- | --- | --- | --- | --- | --- | --- | --- | --- | --- | --- | --- | --- | --- | --- | --- |
|  |  |  |  |  |  |  |  |  |  |  |  |  |  |  |  |  |  |  |  | B1 | cGMP accumulation (HTRF) EC50, no ligand [1]: 31.2 nM; cGMP accumulation (HTRF) EC50, with 40 pM ANP [1]: 2.07e-08 M; cGMP accumulation (HTRF) EC50, with 80 pM BNP [1]: 1.78e-09 M |
| 104 | 1.16 | 0.000367 | 317000 | 31 | 0.65 | 0.53 | 65 | 0.561 | 7.11e-05 | 127000 | 163 | 2.06e-08 | 3.5e-08 | 18 | 104 | 99 | 100 | 100 | 0.543 | B2 | C1q-CIC assay Final Value; 100 nM antibody + 100 nM antigen; Result Neg (REGN1945 [4]): 0.35 ug Eq/mL; C1q-CIC assay Final Value; 1 uM antibody + 100 nM antigen; Result Neg (REGN1945 [4]): 0.3 ug Eq/mL |
| 160 | 0.914 | 0.000424 | 464000 | 27 |  |  | 110 | 0.528 | 9.42e-05 | 178000 | 123 | 2.23e-08 | 3.32e-08 | 15.5 | 102 | 99 | 99 | 100 | 0.381 | B3 | C1q-CIC assay Final Value; 100 nM antibody + 100 nM antigen; Result Neg (R5381 [8]): 0.22 ug Eq/mL; C1q-CIC assay Final Value; 1 uM antibody + 100 nM antigen; Result Neg (R5381 [8]): 0.2 ug Eq/mL; C1q-CIC assay Final Value; 100 nM antibody + 100 nM antigen; Result Neg (REGN1945 [9]): 0.11 ug Eq/mL; C1q-CIC assay Final Value; 1 uM antibody + 100 nM antigen; Result Neg (REGN1945 [9]): 0.16 ug Eq/mL |
| 81 | 5.78 | 0.00086 | 149000 | 13 |  |  | 47 | 1.76 | 0.000132 | 75100 | 87 | 2.66e-08 | 4.13e-08 | 46 | 104 | 97 | 100 | 99.3 | 2.04 | B4 | C1q-CIC assay Final Value; 100 nM antibody + 100 nM antigen; Result Neg (R5381 [8]): 0.18 ug Eq/mL; C1q-CIC assay Final Value; 1 uM antibody + 100 nM antigen; Result Neg (R5381 [8]): 0.29 ug Eq/mL; C1q-CIC assay Final Value; 100 nM antibody + 100 nM antigen; Result Neg (REGN1945 [9]): 0.15 ug Eq/mL; C1q-CIC assay Final Value; 1 uM antibody + 100 nM antigen; Result Neg (REGN1945 [9]): 0.2 ug Eq/mL; koff (H2aM22033N [10]): 0.00142 s⁻¹; t1/2 (H2aM22033N [10]): 8 min; koff (H2aM22033N [11]): 0.0197 s⁻¹; t1/2 (H2aM22033N [11]): 0.6 min; koff (H2aM22033N [12]): 0.00294 s⁻¹; t1/2 (H2aM22033N [12]): 3.9 min; koff (H2aM22033N [13]): 0.000996 s⁻¹; t1/2 (H2aM22033N [13]): 12 min |
| 55 | 6.71 | 0.000738 | 110000 | 16 | 0.64 | 0.42 | 31 | 1.52 | 9.89e-05 | 65100 | 117 | 1.76e-08 | 3.81e-08 | 36.3 | 101 | 97 | 99 | 99 | 2.4 | B5 | C1q-CIC assay Final Value; 100 nM antibody + 100 nM antigen; Result Neg (REGN1945 [4]): 0.37 ug Eq/mL; C1q-CIC assay Final Value; 1 uM antibody + 100 nM antigen; Result Neg (REGN1945 [4]): 0.55 ug Eq/mL; koff (H2aM22033N [10]): 0.000792 s⁻¹; t1/2 (H2aM22033N [10]): 15 min; koff (H2aM22033N [11]): 0.000664 s⁻¹; t1/2 (H2aM22033N [11]): 17 min; koff (H2aM22033N [12]): 0.000811 s⁻¹; t1/2 (H2aM22033N [12]): 14 min; koff (H2aM22033N [13]): 0.000867 s⁻¹; t1/2 (H2aM22033N [13]): 13 min |
